Laboratory results taken from the supplement of paper PMC6757056.
± gives the standard deviation of the averaged measurements.

B1: library; a variant is named by its letters at N, in order (parent)
chain: GCUGUCACCGGUGCUUGGUACGUUAUAUUCAGCCGGUCUGAUGAGUCUNNNNNNAGACGAAACAGC

Tests used:
[1] = variants of: B1; assay: normalized RNA/DNA level without ligand (relative to sTRSVctl = 100) (log10 (% of sTRSVctl)); HEK293T overexpressing SLC46A1; higher = less ribozyme self-cleavage, higher mRNA level; details: without (6R,S)-folinic acid; ligand present: no
How it was run: (§1)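 Library plasmids carrying ribozyme switches linked to mCherry, or to eGFP in some ligand experiments, were transfected into HEK293T at 4 µg per 6-well well, with any ligand added 1 h earlier. Seventy-two hours on, total RNA was extracted with EDTA and reverse-transcribed, amplified, barcoded and sequenced. RNA level was RNA over DNA reads normalized to a spiked-in non-cleaving sequence or to the top sequences, then scaled and log-transformed. The top set was 25 sequences, the transform was ×100 and log10, and sequences needed ≥100 DNA reads.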

[2] = variants of: B1; assay: normalized RNA/DNA level with ligand (relative to sTRSVctl = 100) (log10 (% of sTRSVctl)); HEK293T overexpressing SLC46A1; ligand concentration (+) RNA-Seq: 6 mM; higher = less ribozyme self-cleavage, higher mRNA level; details: with (6R,S)-folinic acid; ligand present: yes
How it was run: as §1

Variant	normalized RNA/DNA level without ligand (log10) [1]	normalized RNA/DNA level with ligand (log10) [2]
ACCAGC	2.071 ± 0.0016	2.06 ± 0.038
ACCAGU	2.005 ± 0.0042	2.02 ± 0.013
UCAGAC	2.046 ± 0.0027	1.997 ± 0.016
UCAGAA	1.9353 ± 0.0018	2.017 ± 0.013
UCAGAG	1.75 ± 0.026	1.98 ± 0.0089
CCCACG	2.014 ± 0.0016	2.03 ± 0.021
CCCACA	2.05 ± 0.027	2 ± 0.034
CCCACC	2.022 ± 0.0044	1.99 ± 0.021
CCCACU	2.103 ± 0.016	2.08 ± 0.062
CCACGC	2.01 ± 0.022	2.01 ± 0.025
CCACGG	2.06 ± 0.029	2.04 ± 0.048
CCACGA	2.011 ± 0.0078	2.019 ± 0.009
ACAGCU	2.06 ± 0.024	2.059 ± 0.004
ACAGCC	2.03 ± 0.0033	2.04 ± 0.045
CCAUGG	1.986 ± 0.013	2.016 ± 0.015
CCAUGC	2.054 ± 0.015	2.05 ± 0.04
CCAUGA	1.981 ± 0.0035	2 ± 0.059
ACCCAG	1.98 ± 0.01	2 ± 0.044
ACCCAA	2.02 ± 0.024	2.018 ± 0.013
ACCCAC	2.02 ± 0.016	2 ± 0.044
ACCCAU	2.013 ± 0.01	2.01 ± 0.036
GCCCCA	2.031 ± 0.0049	2.01 ± 0.042
ACAGGC	2.03 ± 0.021	2.01 ± 0.032
ACAGGA	1.948 ± 0.011	2.03 ± 0.037

Variant	normalized RNA/DNA level without ligand (log10) [1]	normalized RNA/DNA level with ligand (log10) [2]
CCCAUA	2.02 ± 0.036	2.03 ± 0.05
CCCAUG	2.044 ± 0.0075	2 ± 0.033
CCCAUU	2.09 ± 0.024	2.079 ± 0.01
GCAUAC	1.9845 ± 0.0011	2.03 ± 0.033
CCAGGG	1.99 ± 0.021	2.038 ± 0.018
CCAGGA	1.993 ± 0.00019	1.98 ± 0.036
CCAGGU	2.026 ± 0.0082	2.05 ± 0.033
CCAGGC	2.094 ± 0.018	2.05 ± 0.026
UCCAAA	1.982 ± 0.0034	1.986 ± 0.015
UCCAAC	2.067 ± 0.0087	2.06 ± 0.03
UCCAAU	1.953 ± 0.0052	1.96 ± 0.028
CCAUUU	2.012 ± 0.018	2.04 ± 0.036
CCAUUA	1.9907 ± 0.00033	2 ± 0.023
CCAUUC	2.045 ± 0.02	2.03 ± 0.048
CCAUUG	1.97 ± 0.031	2.015 ± 0.0036
UCCCCA	2.052 ± 0.0085	2.04 ± 0.033
CCAGCG	1.97 ± 0.025	1.99 ± 0.027
CCAGCU	2.087 ± 0.018	2.036 ± 0.013
CCAGCA	2.01 ± 0.031	1.985 ± 0.0059
GCACCG	2.055 ± 0.0053	2.05 ± 0.061
GCACCA	2.04 ± 0.022	2 ± 0.039
GCACCC	2.024 ± 0.004	2.012 ± 0.0027
GCACCU	2.028 ± 0.015	2.01 ± 0.035
GCCAGU	2.056 ± 0.0089	2.049 ± 0.015

Variant	normalized RNA/DNA level without ligand (log10) [1]	normalized RNA/DNA level with ligand (log10) [2]
UCCACU	2.041 ± 0.0029	2.052 ± 0.014
UCCACA	1.985 ± 0.0093	2 ± 0.046
UCCACC	2.018 ± 0.017	2.03 ± 0.022
UCAUCA	2.05 ± 0.039	2.03 ± 0.044
UCAUCU	2.064 ± 0.0079	2.055 ± 0.0055
UCAUCG	1.997 ± 0.0043	2.01 ± 0.04
UCAUCC	2.07 ± 0.051	2.05 ± 0.041
UCAGGC	2.031 ± 0.003	2.03 ± 0.057
UCAGUG	1.78 ± 0.018	1.972 ± 0.011
UCAGUU	2.008 ± 0.02	2 ± 0.049
UCAGUA	1.98 ± 0.021	2 ± 0.046
CCAGUU	2.019 ± 0.013	2.02 ± 0.05
CCAGUA	2.027 ± 0.0027	2.05 ± 0.044
CCAGUC	2.06 ± 0.0079	2.0299 ± 0.00081
UCACGG	1.965 ± 0.019	2 ± 0.043
UCACGA	2.019 ± 0.0037	2.03 ± 0.028
UCACGC	2.036 ± 0.0036	1.97 ± 0.023
UCACGU	1.98 ± 0.036	2.01 ± 0.03
GCAUGU	1.983 ± 0.0026	2.02 ± 0.055
GCAUGC	2.025 ± 0.0027	1.999 ± 0.0055
GCAUGG	1.944 ± 0.0075	2.04 ± 0.028
UCCAGC	2.035 ± 0.016	2.03 ± 0.022
UCCAGU	1.94 ± 0.029	1.99 ± 0.029
GCAAUG	1.98 ± 0.0061	2.033 ± 0.0084

Variant	normalized RNA/DNA level without ligand (log10) [1]	normalized RNA/DNA level with ligand (log10) [2]
GCAAUU	2.039 ± 0.01	2.04 ± 0.042
GCAAUA	2.014 ± 0.013	2.03 ± 0.026
GCAAUC	2.03 ± 0.02	2.03 ± 0.038
UCACUG	1.906 ± 0.0057	2.015 ± 0.02
UCACUU	2.021 ± 0.0092	2.04 ± 0.018
UCACUC	2.07 ± 0.01	2.05 ± 0.026
UCACUA	1.9969 ± 0.0017	2.019 ± 0.0085
GCAUCA	2.023 ± 0.013	2.03 ± 0.022
GCAUCG	2.01 ± 0.029	2.061 ± 0.011
GCAUCC	2.059 ± 0.0098	2.048 ± 0.0088
GCAUCU	2.054 ± 0.0071	2.04 ± 0.058
CCACAG	1.95 ± 0.026	2 ± 0.024
CCACAC	1.99 ± 0.02	1.967 ± 0.0084
CCACAU	1.961 ± 0.004	1.98 ± 0.072
GCAUUU	2.03 ± 0.0026	2.04 ± 0.04
GCAUUG	1.952 ± 0.009	2.01 ± 0.011
GCAUUC	2.03 ± 0.052	2.023 ± 0.0067
ACACCC	2.041 ± 0.0034	1.97 ± 0.045
ACACCU	2.0447 ± 0.0018	2.05 ± 0.048
ACCAAC	2.025 ± 0.012	2.02 ± 0.029
ACCAAG	2.0073 ± 0.00077	2.009 ± 0.014
ACCAAU	1.955 ± 0.01	2.012 ± 0.0037
UCCAUC	2.036 ± 0.018	2.01 ± 0.051
UCCAUU	2.033 ± 0.011	2.006 ± 0.006

Variant	normalized RNA/DNA level without ligand (log10) [1]	normalized RNA/DNA level with ligand (log10) [2]
UCCAUA	1.972 ± 0.0018	1.98 ± 0.042
UCCAUG	1.857 ± 0.005	1.97 ± 0.053
CCACCC	2.038 ± 0.011	1.994 ± 0.014
CCACCA	2.044 ± 0.012	2.01 ± 0.041
CCACCU	2.101 ± 0.015	2.07 ± 0.033
CCACCG	2.007 ± 0.018	2.01 ± 0.054
GCACGG	1.997 ± 0.016	2.006 ± 0.018
GCACGU	1.99 ± 0.02	2.01 ± 0.023
GCACGA	2.029 ± 0.005	2.03 ± 0.038
GCACGC	2.025 ± 0.0075	2.024 ± 0.02
CCAGAC	1.99 ± 0.023	1.98 ± 0.051
CCAGAG	1.909 ± 0.013	2.014 ± 0.019
CCAGAA	1.982 ± 0.0051	1.98 ± 0.053
UCAUGU	1.942 ± 0.0042	2.01 ± 0.039
UCAUGG	1.947 ± 0.0059	2.03 ± 0.048
UCAUGA	2.01 ± 0.028	2.053 ± 0.019
ACACUA	2.017 ± 0.012	2.01 ± 0.043
ACACUU	1.996 ± 0.016	2.03 ± 0.027
ACACUG	1.968 ± 0.01	2.03 ± 0.044
ACACUC	2.05 ± 0.027	2.03 ± 0.031
